T1: Chymase, from human skin (human, UniProt P23946 22-247)
T1 construct: purified natural enzyme, bought
T1 sequence (looked up): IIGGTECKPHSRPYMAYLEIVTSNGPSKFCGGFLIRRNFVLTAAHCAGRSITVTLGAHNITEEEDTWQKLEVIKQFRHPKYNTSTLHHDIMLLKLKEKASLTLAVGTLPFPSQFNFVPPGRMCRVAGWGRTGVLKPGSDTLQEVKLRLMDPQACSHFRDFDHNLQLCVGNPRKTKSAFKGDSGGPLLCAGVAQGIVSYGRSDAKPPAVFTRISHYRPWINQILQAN

B1: Example 125 (peptide)
peptide: XCTASIPPQCY
HELM: PEPTIDE1{[Nle].C.T.A.S.I.P.P.Q.C.Y.[dP].V}$PEPTIDE1,PEPTIDE1,2:R3-10:R3|PEPTIDE1,PEPTIDE1,1:R1-13:R2$$$V2.0
SMILES: CCCC[C@@H]1NC(=O)[C@H](C(C)C)NC(=O)[C@H]2CCCN2C(=O)[C@H](Cc2ccc(O)cc2)NC(=O)[C@@H]2CSSC[C@H](NC1=O)C(=O)N[C@@H]([C@@H](C)O)C(=O)N[C@@H](C)C(=O)N[C@@H](CO)C(=O)N[C@@H]([C@@H](C)CC)C(=O)N1CCC[C@H]1C(=O)N1CCC[C@H]1C(=O)N[C@@H](CCC(N)=O)C(=O)N2
B2: Example 179 (peptide)
peptide: XCTASIPPQCY
HELM: PEPTIDE1{[Nle].C.T.A.S.I.P.P.Q.C.Y.[dP].P}$PEPTIDE1,PEPTIDE1,2:R3-10:R3|PEPTIDE1,PEPTIDE1,1:R1-13:R2$$$V2.0
SMILES: CCCC[C@@H]1NC(=O)[C@@H]2CCCN2C(=O)[C@H]2CCCN2C(=O)[C@H](Cc2ccc(O)cc2)NC(=O)[C@@H]2CSSC[C@H](NC1=O)C(=O)N[C@@H]([C@@H](C)O)C(=O)N[C@@H](C)C(=O)N[C@@H](CO)C(=O)N[C@@H]([C@@H](C)CC)C(=O)N1CCC[C@H]1C(=O)N1CCC[C@H]1C(=O)N[C@@H](CCC(N)=O)C(=O)N2
B3: Example 97 (peptide)
peptide: XCTASIPPQCX
HELM: PEPTIDE1{[Nle].C.T.A.S.I.P.P.Q.C.[Cha].[dP].P}$PEPTIDE1,PEPTIDE1,2:R3-10:R3|PEPTIDE1,PEPTIDE1,1:R1-13:R2$$$V2.0
SMILES: CCCC[C@@H]1NC(=O)[C@@H]2CCCN2C(=O)[C@H]2CCCN2C(=O)[C@H](CC2CCCCC2)NC(=O)[C@@H]2CSSC[C@H](NC1=O)C(=O)N[C@@H]([C@@H](C)O)C(=O)N[C@@H](C)C(=O)N[C@@H](CO)C(=O)N[C@@H]([C@@H](C)CC)C(=O)N1CCC[C@H]1C(=O)N1CCC[C@H]1C(=O)N[C@@H](CCC(N)=O)C(=O)N2
notes: also called Ex. 97
B4: Example 137 (peptide)
peptide: XCTASIPPQCF
HELM: PEPTIDE1{[Nle].C.T.A.S.I.P.P.Q.C.F.[dP].P}$PEPTIDE1,PEPTIDE1,2:R3-10:R3|PEPTIDE1,PEPTIDE1,1:R1-13:R2$$$V2.0
SMILES: CCCC[C@@H]1NC(=O)[C@@H]2CCCN2C(=O)[C@H]2CCCN2C(=O)[C@H](Cc2ccccc2)NC(=O)[C@@H]2CSSC[C@H](NC1=O)C(=O)N[C@@H]([C@@H](C)O)C(=O)N[C@@H](C)C(=O)N[C@@H](CO)C(=O)N[C@@H]([C@@H](C)CC)C(=O)N1CCC[C@H]1C(=O)N1CCC[C@H]1C(=O)N[C@@H](CCC(N)=O)C(=O)N2
notes: also called Ex. 137
B5: Example 102 (peptide)
peptide: XCTASIPPQCY
HELM: PEPTIDE1{[CCCCCCCC[C@H](N[*:1])C(=O)[*:2]].C.T.A.S.I.P.P.Q.C.Y.[dP].P}$PEPTIDE1,PEPTIDE1,2:R3-10:R3|PEPTIDE1,PEPTIDE1,1:R1-13:R2$$$V2.0
SMILES: CCCCCCCC[C@@H]1NC(=O)[C@@H]2CCCN2C(=O)[C@H]2CCCN2C(=O)[C@H](Cc2ccc(O)cc2)NC(=O)[C@@H]2CSSC[C@H](NC1=O)C(=O)N[C@@H]([C@@H](C)O)C(=O)N[C@@H](C)C(=O)N[C@@H](CO)C(=O)N[C@@H]([C@@H](C)CC)C(=O)N1CCC[C@H]1C(=O)N1CCC[C@H]1C(=O)N[C@@H](CCC(N)=O)C(=O)N2
B6: Example 168 (peptide)
peptide: XCTASIPPQCY
HELM: PEPTIDE1{[Nle].C.T.A.S.I.P.P.Q.C.Y.[dP].D}$PEPTIDE1,PEPTIDE1,2:R3-10:R3|PEPTIDE1,PEPTIDE1,1:R1-13:R2$$$V2.0
SMILES: CCCC[C@@H]1NC(=O)[C@H](CC(=O)O)NC(=O)[C@H]2CCCN2C(=O)[C@H](Cc2ccc(O)cc2)NC(=O)[C@@H]2CSSC[C@H](NC1=O)C(=O)N[C@@H]([C@@H](C)O)C(=O)N[C@@H](C)C(=O)N[C@@H](CO)C(=O)N[C@@H]([C@@H](C)CC)C(=O)N1CCC[C@H]1C(=O)N1CCC[C@H]1C(=O)N[C@@H](CCC(N)=O)C(=O)N2
notes: also called Ex. 168
B7: Example 144 (peptide)
peptide: XCTASIPPQCX
HELM: PEPTIDE1{[Nle].C.T.A.S.I.P.P.Q.C.[O=C([C@H](Cc1ccccc1Cl)N[*:1])[*:2]].[dP].P}$PEPTIDE1,PEPTIDE1,2:R3-10:R3|PEPTIDE1,PEPTIDE1,1:R1-13:R2$$$V2.0
SMILES: CCCC[C@@H]1NC(=O)[C@@H]2CCCN2C(=O)[C@H]2CCCN2C(=O)[C@H](Cc2ccccc2Cl)NC(=O)[C@@H]2CSSC[C@H](NC1=O)C(=O)N[C@@H]([C@@H](C)O)C(=O)N[C@@H](C)C(=O)N[C@@H](CO)C(=O)N[C@@H]([C@@H](C)CC)C(=O)N1CCC[C@H]1C(=O)N1CCC[C@H]1C(=O)N[C@@H](CCC(N)=O)C(=O)N2
B8: Example 85 (peptide)
peptide: XCTASXPPQCY
HELM: PEPTIDE1{[Nle].C.T.A.S.[CC(C)(C)C[C@H](N[*:1])C(=O)[*:2]].P.P.Q.C.Y.[dP].P}$PEPTIDE1,PEPTIDE1,2:R3-10:R3|PEPTIDE1,PEPTIDE1,1:R1-13:R2$$$V2.0
SMILES: CCCC[C@@H]1NC(=O)[C@@H]2CCCN2C(=O)[C@H]2CCCN2C(=O)[C@H](Cc2ccc(O)cc2)NC(=O)[C@@H]2CSSC[C@H](NC1=O)C(=O)N[C@@H]([C@@H](C)O)C(=O)N[C@@H](C)C(=O)N[C@@H](CO)C(=O)N[C@@H](CC(C)(C)C)C(=O)N1CCC[C@H]1C(=O)N1CCC[C@H]1C(=O)N[C@@H](CCC(N)=O)C(=O)N2
notes: also called Ex. 85
B9: Example 95 (peptide)
peptide: XCTASIPPQCX
HELM: PEPTIDE1{[Nle].C.T.A.S.I.P.P.Q.C.[O=C([C@H](Cc1ccc2ccccc2c1)N[*:1])[*:2]].[dP].P}$PEPTIDE1,PEPTIDE1,2:R3-10:R3|PEPTIDE1,PEPTIDE1,1:R1-13:R2$$$V2.0
SMILES: CCCC[C@@H]1NC(=O)[C@@H]2CCCN2C(=O)[C@H]2CCCN2C(=O)[C@H](Cc2ccc3ccccc3c2)NC(=O)[C@@H]2CSSC[C@H](NC1=O)C(=O)N[C@@H]([C@@H](C)O)C(=O)N[C@@H](C)C(=O)N[C@@H](CO)C(=O)N[C@@H]([C@@H](C)CC)C(=O)N1CCC[C@H]1C(=O)N1CCC[C@H]1C(=O)N[C@@H](CCC(N)=O)C(=O)N2
notes: also called Ex. 95

How the values were obtained:
Experiment in all cases: enzyme inhibition, pNA substrate
[1] = molecular target: Thrombin, from Human Plasma, high activity (human, UniProt P00734 328-622)
[2] = molecular target: T2, Coagulation Factor Xa, from uman plasma (human, UniProt P00742 41-179; P00742 235-488, limits assumed)
T2 construct: purified natural enzyme, bought; also called FXa

[3] = molecular target: T3, Trypsin, Iodination grade, from human pancreas (human, UniProt P07477 24-247)
T3 construct: purified natural enzyme, bought

[4] = molecular target: T4, Tryptase, from human lung (human, UniProt Q15661 31-275, limits assumed)
T4 construct: purified natural enzyme, bought

[5] = molecular target: T5, Chymotrypsin, from human pancreas (human, UniProt P17538 19-263)
T5 construct: purified natural enzyme, bought

[6] = molecular target: T1, Chymase, from human skin
[7] = molecular target: T6, Urokinase from human urine (human, UniProt P00749 21-431, limits assumed)
T6 construct: purified natural enzyme, bought

T4 sequence (Q15661 31-275 limits assumed): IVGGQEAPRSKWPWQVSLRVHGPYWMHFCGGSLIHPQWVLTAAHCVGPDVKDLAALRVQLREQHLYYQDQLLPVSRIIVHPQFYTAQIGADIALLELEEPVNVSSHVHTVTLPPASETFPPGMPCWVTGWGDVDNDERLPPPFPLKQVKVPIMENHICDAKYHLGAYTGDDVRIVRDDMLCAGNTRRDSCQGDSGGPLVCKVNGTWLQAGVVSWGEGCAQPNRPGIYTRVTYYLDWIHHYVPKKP
T2 sequence (P00742 41-179 limits assumed, chain 1 of 2): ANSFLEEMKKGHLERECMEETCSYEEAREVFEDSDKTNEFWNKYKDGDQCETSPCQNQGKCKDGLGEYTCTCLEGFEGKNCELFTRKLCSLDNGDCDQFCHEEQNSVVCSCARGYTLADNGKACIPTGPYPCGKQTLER
T2 sequence (P00742 235-488 limits assumed, chain 2 of 2): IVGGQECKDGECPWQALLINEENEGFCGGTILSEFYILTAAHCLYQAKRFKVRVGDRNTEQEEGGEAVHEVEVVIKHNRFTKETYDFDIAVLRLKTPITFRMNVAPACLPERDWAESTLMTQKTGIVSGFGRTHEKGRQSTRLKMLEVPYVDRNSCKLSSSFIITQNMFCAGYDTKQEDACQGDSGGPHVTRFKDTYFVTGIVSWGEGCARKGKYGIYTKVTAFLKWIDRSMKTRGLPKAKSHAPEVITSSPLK
T5 sequence (P17538 19-263): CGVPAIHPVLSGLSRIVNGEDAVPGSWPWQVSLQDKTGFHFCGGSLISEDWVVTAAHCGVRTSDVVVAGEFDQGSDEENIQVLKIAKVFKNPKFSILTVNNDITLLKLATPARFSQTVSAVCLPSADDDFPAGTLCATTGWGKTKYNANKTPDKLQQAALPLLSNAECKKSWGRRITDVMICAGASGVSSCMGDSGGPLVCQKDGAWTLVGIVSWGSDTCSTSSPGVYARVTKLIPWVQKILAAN

| Binder | % inhibition at 100 µM [1] | % inhibition at 100 µM [2] | % inhibition at 100 µM [3] | % inhibition at 100 µM [4] | % inhibition at 100 µM [5] | % inhibition at 100 µM [6] | % inhibition at 100 µM [7] |
| --- | --- | --- | --- | --- | --- | --- | --- |
| B1 | 0% | 0% | 28.3% |  |  |  |  |
| B2 |  |  |  | 0% | 76% |  |  |
| B3 | 11.6% |  |  | 0% |  | 0% | 11.9% |
| B4 | 0% |  |  |  | 68.7% | 0% |  |
| B5 |  | 0% | 0% | 0% |  | 0% |  |
| B6 | 0% |  | 12.8% |  | 72.9% |  |  |
| B7 |  | 0% |  | 0% | 80.6% | 0% |  |
| B8 | 12.6% | 25.6% | 0% |  |  |  |  |
| B9 | 0% | 11.3% |  | 0% |  | 0% | 10.3% |

From patent publication US20140213531A1 (POLYPHOR, published 2014)
